This data set concerns the molecule itself. The data set is described as follows: FRET by flow cytometry, mixtures of Annexin A5-FITC and Annexin A5-Alexa568 on PtdSer-coated paramagnetic beads. As for the experimental part:
Formation of two-dimensional lattices on the phospholipids surfaces was assessed FRET (fluorescence resonance energy transfer) analysis. Paramagnetic beads (1-4 μm in diameter) that were coated with a phospholipids bilayer containing PtdSer were incubated with mixtures of Annexin A5-FITC and Annexin A5-Alexa568 or mixtures of M23-FITC and M23-Alexa568. Fluorescence intensity of the beads was then measured by flow cytometry (Coulter Epics XL-MLC™) using an excitation of 488 nm and emission ranges of 515-530 nm (F11) and >600 nm (F13).
(In flow cytometry, cells or beads pass a laser one at a time.)

B1: Annexin A5 (other)
chain: AQVLRGTVTDFPGFDERADAETLRKAMKGLGTDEESILTLLTSRSNAQRQEISAAFKTLFGRDLLDDLKSELTGKFEKLIVALMKPSRLYDAYELKHALKGAGTNEKVLTEIIASRTPEELRAIKQVYEEEYGSSLEDDVVGDTSGYYQRMLVVLLQANRDPDAGIDEAQVEQDAQALFQAGELKWGTDEEKFITIFGTRSVSHLRKVFDKYMTISGFQIEETIDRETSGNLEQLLLAVVKSIRSIPAYLAETLYYAMKGAGTDDHTLIRVMVSRSEIDLFNIRKEFRKNFATSLYSMIKGDTSGDYKKALLLLCGEDD
modifications: FITC or Alexa568-succinimidylester coupled to amines (positions not stated)
notes: The FRET assay used mixtures of Annexin A5-FITC and Annexin A5-Alexa568 on paramagnetic beads coated with a PtdSer bilayer; also called Annexin A5-FITC; Annexin A5-Alexa568
As to B1, the binding result is listed as “binds”.

The record behind these values is patent US20060009381A1 (I P RANDYWYCK B V, published 2006).
